Key:
[1] = target: Staphylococcus aureus MecI repressor (MecI-His) (Staphylococcus aureus ATCC 43300) (UniProt P68261)
[2] = target: Staphylococcus aureus MecI repressor (MecI-His) (Staphylococcus aureus ATCC 43300) (UniProt P68261); assay: native gel or EMSA
MecI [3] = target: T1, MecI (Staphylococcus aureus, UniProt P68261); assay: NMR titration, 1H-15N SOFAST-HMQC chemical shifts; type: binding
T1 construct: full-length with C-terminal His6 (pET22b), recombinant, purified; homodimer; 15N-labelled for NMR

MecI [4] = target: T1, MecI; assay: agarose-gel EMSA, dissociation of repressor-operator DNA complex; type: binding
Target sequence in this assay (P68261 1-122): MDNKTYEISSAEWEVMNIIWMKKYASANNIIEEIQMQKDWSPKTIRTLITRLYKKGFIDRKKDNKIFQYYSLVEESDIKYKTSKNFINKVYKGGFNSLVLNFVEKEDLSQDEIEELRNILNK

[5] = target: Bacillus licheniformis 749/I BlaI repressor (BlaI-His) (Bacillus licheniformis 749/I) (UniProt P06555)
Bacillus licheniformis 749/I BlaI repressor (BlaI-His) (Bacillus licheniformis 749/I), sequence (P06555 whole entry): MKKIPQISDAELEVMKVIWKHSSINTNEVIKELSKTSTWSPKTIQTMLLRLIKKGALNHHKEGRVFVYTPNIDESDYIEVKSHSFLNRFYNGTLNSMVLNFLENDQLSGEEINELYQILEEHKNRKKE

Staphylococcus aureus MecI repressor (MecI-His) (Staphylococcus aureus ATCC 43300), sequence (P68261 whole entry): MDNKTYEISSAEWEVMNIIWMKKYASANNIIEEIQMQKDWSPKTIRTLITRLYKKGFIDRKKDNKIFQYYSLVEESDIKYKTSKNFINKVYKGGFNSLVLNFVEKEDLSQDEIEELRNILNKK

## γ-D-Glu-L-Lys dipeptide
[1]
  concentration of dipeptide allowing the displacement of 50% of bound MecI from its nucleic operator (agarose gel EMSA titration, 10 to 50 nmol dipeptide in 20 µl): 2 mM
[2]
  Kd: 2 mM

## NCCCC[C@H](NC(=O)CC[C@@H](N)C(=O)O)C(=O)O [dipeptide 2, γ-D-Glu-L-Lys]
MecI [3]
  Kd: 8 ± 2 mM
MecI [4]
  IC50: ~2 mM

## γ-D-Glu-m-A2pm dipeptide
[5]
  concentration of dipeptide allowing the displacement of 50% of bound BlaI from its nucleic operator (agarose gel EMSA titration, 10 to 50 nmol dipeptide in 20 µl): 2 mM

Source: paper PMC3305447, “A Peptidoglycan Fragment Triggers β-lactam Resistance in Bacillus licheniformis” (PLoS Pathogens, 2012)
